This passage reports Ki results from patent publication US10800813.

For this experiment, the target named is Human factor XIa (human), P03951. As to the kind of experiment: enzyme inhibition assay. As to conditions: remark: other sources report otherwise.

Numbered stars: 1 amine (or outer) side, 2 acyl side, 3 side chain; on linkers, the order of the positions; unused ones are H or OH. Bridge positions count the residues as written; N and C are the ends. Ends that are not written are not given here. TBMB = c1c(C[*:1])cc(C[*:3])cc1C[*:2]

As to ACTYPYKCLHQNLCA (linker 2-8-14 via TBMB) [2A10], the Ki (commonly a dissociation constant, usually derived from enzyme kinetics or from competition with a known ligand) is 75 µM.
